Experimental data published in patent publication US20260008815A1, “CYCLIC PEPTIDE OR SALT THEREOF, AND USES THEREOF” (FUJIFILM Corporation, priority 2023, published 2026).
Bridge positions count the residues as written; N and C are the ends. Ends that are not written are not given here. COCH2 = acetyl group that carries the bridge

Each binder was assayed against T1, Recombinant Human FGFR2 alpha (IIIc) Fc Chimera Protein, CF (R&D systems, 712-FR-050) (human, UniProt P21802 22-377) (assay: ELISA on plate-bound FGFR2-Fc).
T1 construct: bought; not shown: Fc part of the chimera
T1 sequence (P21802 22-377, change not shown): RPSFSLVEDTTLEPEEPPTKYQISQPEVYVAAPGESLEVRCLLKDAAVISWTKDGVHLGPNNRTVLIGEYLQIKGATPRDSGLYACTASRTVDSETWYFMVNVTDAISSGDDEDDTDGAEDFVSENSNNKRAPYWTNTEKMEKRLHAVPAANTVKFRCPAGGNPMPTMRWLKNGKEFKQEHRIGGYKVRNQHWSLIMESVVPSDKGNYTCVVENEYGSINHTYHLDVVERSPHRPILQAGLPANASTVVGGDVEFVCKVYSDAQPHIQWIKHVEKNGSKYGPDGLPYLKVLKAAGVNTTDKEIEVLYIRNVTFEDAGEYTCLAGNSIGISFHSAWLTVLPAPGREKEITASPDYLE
Summary of the method: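 Peptide binding scored by category from dose-response of background-corrected luminescence (FGFR-coated minus uncoated wells). Detection via anti-Myc antibody (2 h, room temperature) after 3 h peptide incubation on wells coated with 5 ng FGFR2 alpha (IIIc)-Fc.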

Binder	ELISA luminescence signal at 10 nmol/L peptide, relative to SEQ ID NO: 47 (=1)
YCEENYLDPEQHQYFIYFK(COCH2)R (thioether 2-19) [cyclic peptide SEQ ID NO: 396]	0.5 to 0.7 ratio
YCEENYLDPEQHQYFIYFK(COCH2)H (thioether 2-19) [cyclic peptide SEQ ID NO: 397]	≥ 0.7 ratio
YCHENYLDPEQHQYFIYFK(COCH2)R (thioether 2-19) [cyclic peptide SEQ ID NO: 398]	0.5 to 0.7 ratio
SCIQQNYFWQYVFERYRYK(COCH2)Q (thioether 2-19 (inferred)) [cyclic peptide SEQ ID NO: 46]	0.5 to 0.7 ratio
TCPQNFRDELQFTYFTQYK(COCH2)Y (thioether 2-19 (inferred)) [cyclic peptide SEQ ID NO: 45]	≥ 0.7 ratio
ACEYNYWNQVQFTFLIAFK(COCH2)R (thioether 2-19 (inferred)) [cyclic peptide SEQ ID NO: 44]	0.5 to 0.7 ratio
QCPQNFINPVQWRYFQHYK(COCH2)N (thioether 2-19 (inferred)) [cyclic peptide SEQ ID NO: 80]	≥ 0.7 ratio
KCPQNFANPVQWRYFQHYKN (thioether ring (C)-(K(acetyl))) [cyclic peptide SEQ ID NO: 58]	0.5 to 0.7 ratio
ACPQNFINPVQWRYFQHYK(COCH2)N (thioether 2-19 (inferred)) [cyclic peptide SEQ ID NO: 53]	≥ 0.7 ratio
YCPQNFINPVQWRYFQHYK(COCH2)N (thioether 2-19 (inferred)) [cyclic peptide SEQ ID NO: 77]	≥ 0.7 ratio
QCPQNFINPVQWRYYQHYK(COCH2)N (thioether 2-19 (inferred)) [cyclic peptide SEQ ID NO: 89]	0.5 to 0.7 ratio
QCPQYFINPVQWRYFQHYK(COCH2)N (thioether 2-19) [cyclic peptide SEQ ID NO: 96]	0.1 to 0.5 ratio
KCPQNFINPVQWRYFQHYKN (thioether ring (C)-(K(acetyl))) [cyclic peptide SEQ ID NO: 47]	≥ 0.7 ratio
QCPQNFINPVQWRYFQHVK(COCH2)N (thioether 2-19) [cyclic peptide SEQ ID NO: 91]	0.1 to 0.5 ratio
QCPQNFINPVHWRYFQHYK(COCH2)N (thioether 2-19 (inferred)) [cyclic peptide SEQ ID NO: 87]	≥ 0.7 ratio
KCAQNFINPVQWRYFQHYKN (thioether ring (C)-(K(acetyl))) [cyclic peptide SEQ ID NO: 54]	≥ 0.7 ratio
QCPQNFINPVQWRYFQHFK(COCH2)N (thioether 2-19) [cyclic peptide SEQ ID NO: 92]	≥ 0.7 ratio
LCPQNFINPVQWRYFQHYK(COCH2)N (thioether 2-19 (inferred)) [cyclic peptide SEQ ID NO: 73]	≥ 0.7 ratio
KCPQNFIAPVQWRYFQHYKN (not fully specified; thioether ring (C)-(K(acetyl))) [cyclic peptide SEQ ID NO: 59]	0.5 to 0.7 ratio
KCPQAFINPVQWRYFQHYKN (thioether ring (C)-(K(acetyl))) [cyclic peptide SEQ ID NO: 56]	0.1 to 0.5 ratio
QCPQGFINPVQWRYFQHYK(COCH2)N (thioether 2-19) [cyclic peptide SEQ ID NO: 95]	0.1 to 0.5 ratio
QCPQNFINPVQWRYRQHYK(COCH2)N (thioether 2-19 (inferred)) [cyclic peptide SEQ ID NO: 90]	0.1 to 0.5 ratio
KCPQNFINPVQWRYFQAYKN (not fully specified; thioether ring (C)-(K(acetyl))) [cyclic peptide SEQ ID NO: 66]	≥ 0.7 ratio
PCPQNFINPVQWRYFQHYK(COCH2)N (thioether 2-19 (inferred)) [cyclic peptide SEQ ID NO: 72]	≥ 0.7 ratio

Binder	ELISA luminescence signal at 10 nmol/L peptide, relative to SEQ ID NO: 47 (=1)
TCPQNFINPVQWRYFQHYK(COCH2)N (thioether 2-19 (inferred)) [cyclic peptide SEQ ID NO: 82]	≥ 0.7 ratio
FCPQNFINPVQWRYFQHYK(COCH2)N (thioether 2-19 (inferred)) [cyclic peptide SEQ ID NO: 76]	≥ 0.7 ratio
HCPQNFINPVQWRYFQHYK(COCH2)N (thioether 2-19 (inferred)) [cyclic peptide SEQ ID NO: 86]	≥ 0.7 ratio
KCPQNFINPAQWRYFQHYKN (not fully specified; thioether ring (C)-(K(acetyl))) [cyclic peptide SEQ ID NO: 61]	≥ 0.7 ratio
ECPQNFINPVQWRYFQHYK(COCH2)N (thioether 2-19 (inferred)) [cyclic peptide SEQ ID NO: 84]	≥ 0.7 ratio
WCPQNFINPVQWRYFQHYK(COCH2)N (thioether 2-19 (inferred)) [cyclic peptide SEQ ID NO: 78]	≥ 0.7 ratio
KCPQNFINPVQARYFQHYKN (not fully specified; thioether ring (C)-(K(acetyl))) [cyclic peptide SEQ ID NO: 62]	0.1 to 0.5 ratio
QCPQNFINPVQWRYFQHSK(COCH2)N (thioether 2-19) [cyclic peptide SEQ ID NO: 94]	0.1 to 0.5 ratio
KCPQNAINPVQWRYFQHYKN (thioether ring (C)-(K(acetyl))) [cyclic peptide SEQ ID NO: 57]	0.5 to 0.7 ratio
KCPQNFINPVQWAYFQHYKN (not fully specified; thioether ring (C)-(K(acetyl))) [cyclic peptide SEQ ID NO: 63]	≥ 0.7 ratio
KCPQNFINAVQWRYFQHYKN (not fully specified; thioether ring (C)-(K(acetyl))) [cyclic peptide SEQ ID NO: 60]	≥ 0.7 ratio
ICPQNFINPVQWRYFQHYK(COCH2)N (thioether 2-19 (inferred)) [cyclic peptide SEQ ID NO: 74]	≥ 0.7 ratio
NCPQNFINPVQWRYFQHYK(COCH2)N (thioether 2-19 (inferred)) [cyclic peptide SEQ ID NO: 79]	≥ 0.7 ratio
RCPQNFINPVQWRYFQHYK(COCH2)N (thioether 2-19 (inferred)) [cyclic peptide SEQ ID NO: 85]	≥ 0.7 ratio
QCPQNFINPVQWRYLQHYK(COCH2)N (thioether 2-19 (inferred)) [cyclic peptide SEQ ID NO: 88]	≥ 0.7 ratio
DCPQNFINPVQWRYFQHYK(COCH2)N (thioether 2-19 (inferred)) [cyclic peptide SEQ ID NO: 83]	≥ 0.7 ratio
QCPQNFINPVQWRYFQHWK(COCH2)N (thioether 2-19) [cyclic peptide SEQ ID NO: 93]	≥ 0.7 ratio
VCPQNFINPVQWRYFQHYK(COCH2)N (thioether 2-19 (inferred)) [cyclic peptide SEQ ID NO: 75]	≥ 0.7 ratio
GCPQNFINPVQWRYFQHYK(COCH2)N (thioether 2-19 (inferred)) [cyclic peptide SEQ ID NO: 71]	≥ 0.7 ratio
KCPANFINPVQWRYFQHYKN (thioether ring (C)-(K(acetyl))) [cyclic peptide SEQ ID NO: 55]	≥ 0.7 ratio
KCPQNFINPVQWRYFAHYKN (not fully specified; thioether ring (C)-(K(acetyl))) [cyclic peptide SEQ ID NO: 65]	≥ 0.7 ratio
KCPQNFINPVQWRYFQHYKA (not fully specified; thioether ring (C)-(K(acetyl))) [cyclic peptide SEQ ID NO: 67]	≥ 0.7 ratio
SCPQNFINPVQWRYFQHYK(COCH2)N (thioether 2-19 (inferred)) [cyclic peptide SEQ ID NO: 81]	≥ 0.7 ratio
KCPQNFINPVQWRAFQHYKN (not fully specified; thioether ring (C)-(K(acetyl))) [cyclic peptide SEQ ID NO: 64]	0.5 to 0.7 ratio
